System: small intestinal immune cells
Assay: Droplet-based scRNA-seq of small intestinal immune cells (LP and PP), OVA vs PBS, clustering and differential expression
Assay type: in vivo, mouse
Text: To comprehensively characterize small intestinal immune cells, Applicants generated scRNA-Seq profiles for 58,067 immune cells collected from lamina propria (LP) and Peyer's patch (PP) regions at steady state and after induction of a type 2 inflammatory reaction to ovalbumin (OVA) (Brandt et al., 2003) (FIGS. 1A and 8A). To ensure sufficient representation of rare cells, Applicants combined a normalization strategy—removing by flow sorting either a portion of IgD+ naïve B cells, which are the most abundant cell type in PPs, or all CD19+ and CD3+ T cells (FIG. 8B, Methods)—with profiling of a sufficiently large number of cells number (P>0.99 to recover at least 15 cells from each cluster, Methods) by massively parallel scRNA-seq (Haber et al., 2017) (Methods). Applicants obtained 36,797 and 21,270 high quality cells passing initial filtering (Methods) from PP and LP regions, respectively.
Overall, Applicants annotated 27 cell subsets across the two compartments, spanning T cells, B cells, ILCs, dendritic cells (DCs), myeloid cells and stromal cells, in frequencies ranging from 0.07% to 14%. Briefly, Applicants first partitioned the cells from the PP regions by unsupervised clustering (Methods) into 46 clusters, retained the 97% of cells that were robustly assigned cell identities in each cluster (Methods), assigned the cells from the LP regions to the 46 clusters using a classifier (Methods), and visualized the data with scvis (Ding et al., 2018), a deep generative model-based method (FIGS. 1B and 8C, Methods). Next, Applicants identified genes that were differentially expressed between the cells in each cluster and the remaining cells (Table 1, Methods), as well as between pairs of clusters (Table 2), to elucidate identities of similar cell types/states. Applicants excluded from downstream analysis clusters mostly consisting of contaminants from epithelium, likely doublets, or cells with a small number of Unique Molecular Identifiers (UMIs) (FIGS. 1C and 8D), or lacking distinct markers (Methods). Altogether, Applicants retained 27 clusters spanning 85% of the cells and each associated with distinct marker genes (FIG. 8E, Methods).
To induce allergic reaction to OVA, 6 to 7 weeks old mice were sensitized twice, two weeks apart, with 50 μg of OVA plus 1 mg of aluminum potassium sulfate adjuvant via intraperitoneal injection. Two weeks later, mice were orally administered with 50 mg of OVA on every other day for a total of five times. 1 μg of α-CGRP peptide was administered simultaneously when indicated. Mice were deprived of food for 3-4 hours in cages with wood chip bedding for limiting antigen degradation in the stomach before each intragastric challenge.
Isolation of cells from Peyer's patches (PPs). Peyer's patches (PPs) were carefully dissected from the small intestine under a stereo microscope using a fine scissor, pierced once with a fine forcep. Tissues were digested in freshly made digestion buffer (RPMI-1640 containing 100 μg/ml Liberase™ and 50 μg/ml DNase I at 37° C. on a roto-mixer. After 15 min, tissues were very gently mixed using a 1 ml pipette. The supernatant was collected and added to ice-cold MACS buffer (pH 7.4; PBS plus 2% FCS and 2 mM EDTA). Pre-warmed (37° C.) fresh digestion buffer was added to the remaining tissues. After rotation at 37° C. for 15 min, the mixture was vigorously mixed using a 1 ml pipette for 1 min. Supernatants from the two steps were combined and passed through 70 μm filters and stained for FACS (below).
Isolation of cells from the lamina propria (LP). The small intestines were opened longitudinally and washed in ice-cold PBS. For scRNA-seq, roughly 0.5 cm of fragments from each of the distal, middle and proximal regions without visible PPs were collected. Epithelial cells were dissociated by tissue rotation in pre-warmed (37° C.) PBS containing 10 mM EDTA at 37° C. for 15 min, followed by additional incubation on ice for 15 min. Tissues were then shaken vigorously. […]

B1: OVA (protein, UniProt P01012 2-386, looked up)
Ovalbumin: GSIGAASMEFCFDVFKELKVHHANENIFYCPIAIMSALAMVYLGAKDSTRTQINKVVRFDKLPGFGDSIEAQCGTSVNVHSSLRDILNQITKPNDVYSFSLASRLYAEERYPILPEYLQCVKELYRGGLEPINFQTAADQARELINSWVESQTNGIIRNVLQPSSVDSQTAMVLVNAIVFKGLWEKAFKDEDTQAMPFRVTEQESKPVQMMYQIGLFRVASMASEKMKILELPFASGTMSMLVLLPDEVSGLEQLESIINFEKLTEWTSSNVMEERKIKVYLPRMKMEEKYNLTSVLMAMGITDVFSSSANLSGISSAESLKISQAVHAAHAEINEAGREVVGSAEAGVDAASVSEEFRADHPFLFCIKHIATNAVLFFGRCVSP
Cluster ID 4, PP, OVA vs PBS
  D16Ertd472e: LN (average fold change): −0.412
  Dnaja1: LN (average fold change): −0.300
  Dnajb9: LN (average fold change): −0.322
  Egln3: LN (average fold change): −0.350
  Fam46a: LN (average fold change): −0.500
  Fibp: LN (average fold change): −0.268
  Furin: LN (average fold change): −0.203
  Gatad1: LN (average fold change): −0.316
  Gcnt2: LN (average fold change): −0.352
  Gimap3: LN (average fold change): 0.275
  Git2: LN (average fold change): 0.350
  Gnb1: LN (average fold change): −0.255
  H2-T23: LN (average fold change): −0.260
  Herpud1: LN (average fold change): −0.214
  Icos: LN (average fold change): −0.291
  Il2ra: LN (average fold change): 0.378
  Il18r1: LN (average fold change): 0.193
  Irf2: LN (average fold change): 0.312
  Irs2: LN (average fold change): −0.372
  Itgav: LN (average fold change): −0.394
  Klf13: LN (average fold change): −0.255
  Klrk1: LN (average fold change): −0.613
  Leng9: LN (average fold change): −0.375
  Map3k14: LN (average fold change): −0.515
  Mast4: LN (average fold change): −0.207
  Mbnl2: LN (average fold change): −0.436
  Minos1: LN (average fold change): 0.218
  Morf4l2: LN (average fold change): −0.252
  Neat1: LN (average fold change): 0.447
  Nedd8: LN (average fold change): 0.234
  Plekhg1: LN (average fold change): −0.229
  Ppp1r16b: LN (average fold change): −0.157
  Ppp2ca: LN (average fold change): −0.432
  Ptger2: LN (average fold change): 0.347
  Ptpn7: LN (average fold change): 0.323
  Raf1: LN (average fold change): 0.457
  Ramp3: LN (average fold change): −0.380
  Rassf5: LN (average fold change): 0.506
  Rcn2: LN (average fold change): −0.225
  Rel: LN (average fold change): −0.354
  Rgs1: LN (average fold change): −0.221
  Rgs3: LN (average fold change): 0.447
  Rnf19b: LN (average fold change): −0.242
  Rpa3: LN (average fold change): 0.541
  S100a6: LN (average fold change): 0.370
  S100a10: LN (average fold change): 0.215
  Saraf: LN (average fold change): −0.187
  Sat1: LN (average fold change): 0.222
  Scn1b: LN (average fold change): −0.273
  Sec11a: LN (average fold change): 0.283
  Serpina3g: LN (average fold change): 0.347
  Serpinb6b: LN (average fold change): −0.432
  Ssna1: LN (average fold change): 0.346
  Taf7: LN (average fold change): −0.409
  Taf10: LN (average fold change): −0.422
  Tagap: LN (average fold change): 0.423
  Tcrg-C1: LN (average fold change): 0.484
  Tgoln1: LN (average fold change): −0.209
  Timm13: LN (average fold change): 0.230
  Tnf: LN (average fold change): 0.465
  Trim8: LN (average fold change): 0.530
  Trps1: LN (average fold change): −0.444
  Tsc22d3: LN (average fold change): 0.359
  Tspan32: LN (average fold change): 0.324
  Ttc19: LN (average fold change): −0.499
  Tuba4a: LN (average fold change): −0.342
  Tubb4b: LN (average fold change): −0.252
  Txk: LN (average fold change): −0.188
  Vegfa: LN (average fold change): −0.252
  VgIl4: LN (average fold change): −0.302
  Zc3hav1: LN (average fold change): −0.303
  Zfand5: LN (average fold change): −0.245
Cluster ID 5, PP
  1810037l17Rik: percentage of expressing cells in OVA-treated group: 0.446
  Bcl2: percentage of expressing cells in OVA-treated group: 0.863
  Calm1: percentage of expressing cells in OVA-treated group: 0.868
  Cd74: percentage of expressing cells in OVA-treated group: 0.501
  Crlf3: percentage of expressing cells in OVA-treated group: 0.569
  Ctsc: percentage of expressing cells in OVA-treated group: 0.268
  Ddit4: percentage of expressing cells in OVA-treated group: 0.369
  Dnaja1: percentage of expressing cells in OVA-treated group: 0.591
  Dnajb1: percentage of expressing cells in OVA-treated group: 0.206
  Dusp1: percentage of expressing cells in OVA-treated group: 0.206
  DynIl1: percentage of expressing cells in OVA-treated group: 0.7
  Gramd3: percentage of expressing cells in OVA-treated group: 0.475
  Hspa8: percentage of expressing cells in OVA-treated group: 0.977
  Ier2: percentage of expressing cells in OVA-treated group: 0.428
  Ifngr1: percentage of expressing cells in OVA-treated group: 0.563
  Igha: percentage of expressing cells in OVA-treated group: 0.197
  Il7r: percentage of expressing cells in OVA-treated group: 0.48
  Ilk: percentage of expressing cells in OVA-treated group: 0.2
  Jund: percentage of expressing cells in OVA-treated group: 0.654
  Klf6: percentage of expressing cells in OVA-treated group: 0.368
  Klhl6: percentage of expressing cells in OVA-treated group: 0.332
  Lfng: percentage of expressing cells in OVA-treated group: 0.333
  Ltb: percentage of expressing cells in OVA-treated group: 0.865
  Pdcd4: percentage of expressing cells in OVA-treated group: 0.66
  Pik3ip1: percentage of expressing cells in OVA-treated group: 0.556
  Ppp1r15a: percentage of expressing cells in OVA-treated group: 0.219
  Ppp2ca: percentage of expressing cells in OVA-treated group: 0.277
  Ppp3cc: percentage of expressing cells in OVA-treated group: 0.152
  Racgap1: percentage of expressing cells in OVA-treated group: 0.21
  Rnaset2a: percentage of expressing cells in OVA-treated group: 0.709
  Sfpq: percentage of expressing cells in OVA-treated group: 0.284
  Slc9a3r1: percentage of expressing cells in OVA-treated group: 0.428
  Tdrp: percentage of expressing cells in OVA-treated group: 0.228
  Tpm3: percentage of expressing cells in OVA-treated group: 0.665
  Tsc22d3: percentage of expressing cells in OVA-treated group: 0.84
  Tuba1a: percentage of expressing cells in OVA-treated group: 0.302
  Txnip: percentage of expressing cells in OVA-treated group: 0.605
  Uba52: percentage of expressing cells in OVA-treated group: 0.984
  Ucp2: percentage of expressing cells in OVA-treated group: 0.773
  Wdr89: percentage of expressing cells in OVA-treated group: 0.996
  Zfp36l2: percentage of expressing cells in OVA-treated group: 0.617
Cluster ID 5, PP, OVA vs PBS
  1810037l17Rik: LN (average fold change): −0.158
  Bcl2: LN (average fold change): 0.658
  Calm1: LN (average fold change): −0.192
  Cd74: LN (average fold change): −0.211
  Crlf3: LN (average fold change): 0.370
  Ctsc: LN (average fold change): 0.402
  Ddit4: LN (average fold change): 0.426
  Dnaja1: LN (average fold change): −0.416
  Dnajb1: LN (average fold change): −0.867
  Dusp1: LN (average fold change): −0.321
  DynIl1: LN (average fold change): −0.370
  Gramd3: LN (average fold change): 0.481
  Hspa8: LN (average fold change): −0.255
  Ier2: LN (average fold change): −0.174
  Ifngr1: LN (average fold change): 0.536
  Igha: LN (average fold change): 0.503
  Il7r: LN (average fold change): 0.612
  Ilk: LN (average fold change): 0.159
  Jund: LN (average fold change): −0.319
  Klf6: LN (average fold change): −0.374
  Klhl6: LN (average fold change): 0.485
  Lfng: LN (average fold change): −0.281
  Ltb: LN (average fold change): −0.238
  Pdcd4: LN (average fold change): 0.394
  Pik3ip1: LN (average fold change): 0.361
  Ppp1r15a: LN (average fold change): −0.287
  Ppp2ca: LN (average fold change): −0.469
  Ppp3cc: LN (average fold change): 0.621
  Racgap1: LN (average fold change): 0.436
  Rnaset2a: LN (average fold change): 0.225
  Sfpq: LN (average fold change): −0.373
  Slc9a3r1: LN (average fold change): −0.256
  Tdrp: LN (average fold change): −0.354
  Tpm3: LN (average fold change): 0.282
  Tsc22d3: LN (average fold change): 0.772
  Tuba1a: LN (average fold change): −0.250
